Two molecules from paper PMC10065082 (The Journal of Clinical Investigation, 2023) can be followed below.

What all share (settings): both partners purified
Test [1] deals with T1, WT calmodulin (UniProt P0DP23 1-149).
T1 construct: calmodulin, recombinant; Legends say the recombinant CaMs were not FLAG tagged in the patch-clamp experiments; nothing is said of tags for ITC; also called WT CaM; WT-CaM
Nature of the test: ITC; Microcal VP-ITC, 25°C, 10 mM Mops, 2 mM EGTA, 1 mM TCEP, 150 mM KCl, 1.93 mM CaCl2, pH 7, 10 uM free Ca2+; NaV1.6CTD (73-110 uM) peptide and WT-CaM (12 uM) or D96V-CaM (16 uM); fitted to a one-binding site per monomer model. (In general: ITC needs no label: the signal is the heat of the interaction.)

The target in test [2] is T1, WT calmodulin. As to the kind of experiment: ITC; Microcal VP-ITC, 25°C, 10 mM Mops, 2 mM EGTA, 1 mM TCEP, 150 mM KCl, pH 7, 0 Ca2+; NaV1.5CTD (55-75 uM) or NaV1.6CTD (73-110 uM) peptide and WT CaM or D96V-CaM (5-15 uM); fitted to a model of 1 binding site per monomer.
Test [3] concerns the target T2, wild-type calmodulin (UniProt P0DP23 1-149).
T2 construct: Calmodulin (CaM), recombinant; GenBank M19381.1 (mouse CaM I) is printed only for the transgene of the mice, not for the recombinant protein; also called WT CaM; CaM
As to the kind of experiment: ITC; in the presence of 10 uM free Ca2+; NaV1.6CTD peptide and WT CaM or D96V-CaM.

For test [4], the target named is T2, wild-type calmodulin. As to the kind of experiment: ITC; 0 Ca2+; Microcal VP-ITC, 25°C, 10 mM Mops, 2 mM EGTA, 1 mM TCEP, 150 mM KCl, pH 7; NaV1.5CTD (55-75 uM) or NaV1.6CTD (73-110 uM) peptides and WT CaM or D96V-CaM (5-15 uM); 28 injections; fitted to a model of 1 binding site per monomer.

B1: hNaV1.6CTD peptide (residues 1891-1918 of human NaV1.6) (peptide)
peptide: RRKQEEVSAVVLQRAYRGHLARRGFICK
notes: human NaV1.6 carboxy terminal domain stretch with the IQ motif, residues 1891-1918; source: synthetic peptide (LifeTein), at least 90% purity by HPLC
For B1, the “stoichiometry N” value with WT calmodulin [1] and in the test with WT calmodulin [2] was 1 in each case.

B2: hNaV1.6CTD peptide (residues 1891-1918 of human NaV1.6) (peptide)
peptide: RRKQEEVSAVVLQRAYRGHLARRGFICK
notes: Carboxy terminal domain peptide with the IQ motif of human NaV1.6, residues 1891-1918; source: synthetic peptide (LifeTein), at least 90% purity by HPLC
For B2, the Kd came out at 132 nM in the test with wild-type calmodulin [3] and 243 nM with wild-type calmodulin [4].

As a reminder, the stoichiometry N is a count of units in the complex or per binding partner. As usually defined, the Kd is the equilibrium constant for the complex coming apart.
